# Laboratory results: article PMC4830470 (Nature, 2015)
# B1: human class A J-protein DNAJA2 (JA2), wild type (natural protein)
# chain: not shown
# Target: the molecule itself
# Experiment: SEC
protein,measurement,value
B1,stoichiometry N,2
